From paper PMC3585134 come the findings set out here.

Experiment [1] concerns the target AIP56^1–285 (N-terminal domain of AIP56, apoptosis-inducing protein of 56 kDa) (Photobacterium damselae piscicida). The experiment is described as follows: reducing and non-reducing SDS-PAGE; purified AIP56^1–285 and AIP56^286–497, each alone, run with and without DTT (Figure S5A); dimers held by a disulphide formed on oxidation.
The target is the same in experiment [2]. Briefly: reducing and non-reducing SDS-PAGE; reconstituted AIP56: AIP56^1–285 and AIP56^286–497 mixed in equimolar amounts in 8 M urea, 1 mM DTT, refolded by extensive dialysis against sbPBS; run with and without DTT (Figure S6A).
The target in experiment [3] is AIP56^286–497 (C-terminal domain of AIP56, apoptosis-inducing protein of 56 kDa) (Photobacterium damselae piscicida). Briefly: reducing and non-reducing SDS-PAGE; purified AIP56^1–285 and AIP56^286–497, each alone, run with and without DTT (Figure S5A); dimers held by a disulphide formed on oxidation.
For experiment [4] the target is unchanged. The experiment is described as follows: reducing and non-reducing SDS-PAGE; reconstituted AIP56: AIP56^1–285 and AIP56^286–497 mixed in equimolar amounts in 8 M urea, 1 mM DTT, refolded by extensive dialysis against sbPBS; run with and without DTT (Figure S6A).

What is called stoichiometry N is the number of molecules, sites or subunits per partner or assembly.

With “AIP56^1–285 (N-terminal domain of AIP56, apoptosis-inducing protein of 56 kDa) (domain or fragment)”, the stoichiometry N in experiment [1] and in experiment [2] was 2 in each case.
For the substance “AIP56^286–497 (C-terminal domain of AIP56, apoptosis-inducing protein of 56 kDa) (domain or fragment)”, the stoichiometry N in experiment [3] and in experiment [4] was 2 in each case.
